Test results reported in patent US20060257955.

Biological target: T1, labeled peptide ecot2 (T2), Dabcyl-KVSRRRRRGGD-Edans (not fully specified)
T1 chain: KVSRRRRRGGD

B1: E. coli outer membrane protease OmpT (protein)
chain: STETLSFTPDNINADISLGTLSGKTKERVYLAEEGGRKVSQLDWKFNNAAIIKGAINWDLMPQISIGAAGWTTLGSRGGNMVDQDWMDSSNPGTWTDESRHPDTQLNYANEFDLNIKGWLLNEPNYRLGLMAGYQESRYSFTARGGSYIYSSEEGFRDDIGSFPNGERAIGYKQRFKMPYIGLTGSYRYEDFELGGTFKYSGWVESSDNDEHYDPGKRITYRSKVKDQNYYSVAVNAGYYVTPNAKVYVEGAWNRVTNKKGNTSLYDHNNNTSDYSKNGAGIENYNFITTAGLKYTF
protease assay (cleavage of substrate T2, relative fluorescence), buffer with 5% fetal bovine serum: detection of the presence of E. coli in the E. coli sample occurred in the presence of FBS
protease assay (cleavage of substrate T2, relative fluorescence), simulated wound fluid buffer with 5% bovine serum albumin: the protease reactivity of the E. coli sample was not affected by the simulated wound fluid buffer
